Two sequences from patent US20200248181 can be followed below.

In the series the test system is gluten (wheat allergen). Description: SPR. Conditions: 20-mer poly(dA) added at 5' end for SPR immobilization; 40 mM HEPES pH 7.5, 125 mM NaCl, 5 mM KCl, 1 mM MgCl2, 0.01% Tween 20; aptamer immobilized via poly(dA)/biotin-poly(dT).

The sequence GAGGTTGGGTGGGGGAGG [Aptamer 2] showed a Kd of 18.6 nM.
For the sequence “GAGGTTGGGTGGGGGAGGCAGCATGCGGGA [Aptamer 1]”, the Kd was determined as 14.5 nM.

Usually Kd stands for the equilibrium constant for the complex coming apart. Read a high Kd as lower affinity.
